Source: the supplement of paper PMC12783771
± gives the standard deviation of the averaged measurements.

B1: library; a variant is named by its letters at X, in order (parent)
chain: MNIQIGELAKRTACPVVTIRFYEQEGLLPPPGRSRGNFRLYGEEHVERLQFIRHCRSLDMPLSDVRTLLSYRKRPDQDCGEVXMLLDEHIRQVESRIGALLELKHHLVELREACSGARPAQSCGILQXLSXCVCXTRGTTAHXSD

Tests used:
[1] = variants of: B1; experiment: sfGFP reporter fluorescence (15 h) (µM FITC); higher = higher leak; details: library round: Round 2; ligand: none
Description: (§1)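 Cell-free biosensing: 1 µL Echo-assembled CFE reactions with linear PbrR variant templates (5 nM) and pPbrR-sfGFP reporter, with 1 µM Pb, 30 µM Zn or no ligand; endpoint sfGFP fluorescence after 15 h at 30 °C calibrated as µM FITC. Round 2 ML-predicted PbrR mutants; up to 3 biological replicates.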

[2] = variants of: B1; experiment: sfGFP reporter fluorescence (15 h) (µM FITC); higher = stronger transcriptional activation; details: library round: Round 2
Description: as §1

MNIQIGELAKRTACPVVTIRFYEQEGLLPPPGRSRGNFRLYGEEHVERLQFIRHCRSLDMPLSDVRTLLSYRKRPDQDCGEVNMLLDEHIRQVESRIGALLELKHHVVELREACSGARPAQSCGILQGLSACVCKTRGTTAHPSD [NGAKP L107V]
sfGFP reporter fluorescence [1]: 0.173 ± 0.011 | sfGFP reporter fluorescence ([2]; ligand: 1 µM Pb): 0.513 ± 0.055 | sfGFP reporter fluorescence ([2]; ligand: 30 µM Zn): 3.38 ± 0.24

MNIQIGELAKRTACPVVTIRFYEQEGLLPPPGRSRGNFRLYGEEHVERLQFIRHCRSLDMPLSDVRTLLSYRKRPDQDCGEVNMLLDEHIRQVESRIGALLELKHHCVELREACSGARPAQSCGILQILSSCVCDTRGTTAHPSD [NISDP L107C]
sfGFP reporter fluorescence [1]: 2.65 ± 0.43 | sfGFP reporter fluorescence ([2]; ligand: 1 µM Pb): 3.61 ± 0.5 | sfGFP reporter fluorescence ([2]; ligand: 30 µM Zn): 3.33 ± 0.18

MNIQIGELAKRTACPVVTIRFYEQEGLLPPPGRSRGNFRLYGEEHVERLQFIRHCRSLDMPLSDVRTLLSYRKRPDQDCGEVNMILDEHIRQVESRIGALLELVHHLVELREACSGARPAQSCGILQMLSDCVCDTRGTTAHPSD [NMDDP L85I K104V]
sfGFP reporter fluorescence [1]: 0.131 ± 0.013 | sfGFP reporter fluorescence ([2]; ligand: 1 µM Pb): 0.417 ± 0.024 | sfGFP reporter fluorescence ([2]; ligand: 30 µM Zn): 1.99 ± 1.7

MNIQIGELAKRTACPVVTIRFYEQEGLLPPPGRSRGNFRLYGEEHVERLQFIRHCRSLDMPLSDVRTLLSYRKRPDQDCGEVNMLLDEHIRQVESRIGALLELKHHLVELREACSGARPAQSCGILQGLSTCPCYTRGTTAHPSD [NGTYP V133P]
sfGFP reporter fluorescence [1]: 0.0724 ± 0.0067 | sfGFP reporter fluorescence ([2]; ligand: 1 µM Pb): 0.148 ± 0.0095 | sfGFP reporter fluorescence ([2]; ligand: 30 µM Zn): 0.951 ± 0.42

MNIQIGELAKRTACPVVTIRFYEQEGLLPPPGRSRGNFRLYGEEHVERLQFIRHCRSLDMPLSDVRTLLSYRKRPDQDCGEVTMLLDEHIRQVESRIGALLELKHHIVELRAACSGARPAQSCGILQGLSDCVCDTRGTTAHPSD [TGDDP L107I E112A]
sfGFP reporter fluorescence [1]: 0.0475 ± 0.0007 | sfGFP reporter fluorescence ([2]; ligand: 1 µM Pb): 0.131 ± 0.0047 | sfGFP reporter fluorescence ([2]; ligand: 30 µM Zn): 0.511 ± 0.039

MNIQIGELAKRTACPVVTIRFYEQEGLLPPPGRSRGNFRLYGEEHVERLQFIRHCRSLDLNLSKVRTLLSYRKRPDQDCGEVNMLLDEHIRQVESRIGALLELVHHCVELREACSGARPAQSCGILQGLSDCVCDTRGTTAHPSD [NGDDP M60L P61N D64K K104V L107C]
sfGFP reporter fluorescence [1]: 0.716 ± 0.071 | sfGFP reporter fluorescence ([2]; ligand: 1 µM Pb): 2.14 ± 0.18 | sfGFP reporter fluorescence ([2]; ligand: 30 µM Zn): 3.11 ± 0.31

MNIQIGELAKRTACPVVTIRFYEQEGLLPPPGRSRGNFRLYGEEHVERLQFIRHCRSLDMEISKVRTLLSYRKRPDQDCGEVNMLLDEHIRQVESRIGALLELKHHLVELREACSGARPAQSCGILQGLSDCVCDTRGTTAHPSD [NGDDP P61E L62I D64K]
sfGFP reporter fluorescence [1]: 0.125 ± 0.015 | sfGFP reporter fluorescence ([2]; ligand: 1 µM Pb): 0.249 ± 0.094 | sfGFP reporter fluorescence ([2]; ligand: 30 µM Zn): 1.34 ± 0.17
